One test concerns the target mouse ACE2 (mouse) (UniProt Q8R0I0). Nature of the test: flow cytometry on cells. (In general: A flow cytometer gives signals particle by particle.)
A further test deals with human ACE2 (human) (UniProt Q9BYF1). Nature of the test: flow cytometry on cells.
human ACE2 (human), sequence (Q9BYF1 18-805): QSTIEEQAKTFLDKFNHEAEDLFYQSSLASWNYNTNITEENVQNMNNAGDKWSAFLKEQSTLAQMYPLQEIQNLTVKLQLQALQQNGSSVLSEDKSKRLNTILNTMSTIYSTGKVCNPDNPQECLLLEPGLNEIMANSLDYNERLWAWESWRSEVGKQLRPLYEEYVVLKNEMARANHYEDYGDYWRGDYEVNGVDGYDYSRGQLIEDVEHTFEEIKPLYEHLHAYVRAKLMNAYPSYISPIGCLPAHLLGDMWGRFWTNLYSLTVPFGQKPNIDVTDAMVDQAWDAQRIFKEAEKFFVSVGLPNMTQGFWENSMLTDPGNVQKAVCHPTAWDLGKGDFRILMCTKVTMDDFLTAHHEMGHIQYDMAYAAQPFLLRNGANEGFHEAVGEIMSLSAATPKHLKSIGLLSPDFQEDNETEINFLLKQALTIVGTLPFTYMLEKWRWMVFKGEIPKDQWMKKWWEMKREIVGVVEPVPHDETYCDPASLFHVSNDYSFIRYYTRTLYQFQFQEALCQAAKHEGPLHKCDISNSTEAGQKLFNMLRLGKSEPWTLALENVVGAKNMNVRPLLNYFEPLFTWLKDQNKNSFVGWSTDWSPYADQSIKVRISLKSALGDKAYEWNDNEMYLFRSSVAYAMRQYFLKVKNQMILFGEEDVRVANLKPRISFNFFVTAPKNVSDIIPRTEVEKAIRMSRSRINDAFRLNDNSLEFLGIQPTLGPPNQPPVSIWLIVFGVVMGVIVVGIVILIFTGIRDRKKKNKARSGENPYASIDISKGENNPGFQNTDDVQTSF

mouse ACE2 (mouse), sequence (Q8R0I0 18-805): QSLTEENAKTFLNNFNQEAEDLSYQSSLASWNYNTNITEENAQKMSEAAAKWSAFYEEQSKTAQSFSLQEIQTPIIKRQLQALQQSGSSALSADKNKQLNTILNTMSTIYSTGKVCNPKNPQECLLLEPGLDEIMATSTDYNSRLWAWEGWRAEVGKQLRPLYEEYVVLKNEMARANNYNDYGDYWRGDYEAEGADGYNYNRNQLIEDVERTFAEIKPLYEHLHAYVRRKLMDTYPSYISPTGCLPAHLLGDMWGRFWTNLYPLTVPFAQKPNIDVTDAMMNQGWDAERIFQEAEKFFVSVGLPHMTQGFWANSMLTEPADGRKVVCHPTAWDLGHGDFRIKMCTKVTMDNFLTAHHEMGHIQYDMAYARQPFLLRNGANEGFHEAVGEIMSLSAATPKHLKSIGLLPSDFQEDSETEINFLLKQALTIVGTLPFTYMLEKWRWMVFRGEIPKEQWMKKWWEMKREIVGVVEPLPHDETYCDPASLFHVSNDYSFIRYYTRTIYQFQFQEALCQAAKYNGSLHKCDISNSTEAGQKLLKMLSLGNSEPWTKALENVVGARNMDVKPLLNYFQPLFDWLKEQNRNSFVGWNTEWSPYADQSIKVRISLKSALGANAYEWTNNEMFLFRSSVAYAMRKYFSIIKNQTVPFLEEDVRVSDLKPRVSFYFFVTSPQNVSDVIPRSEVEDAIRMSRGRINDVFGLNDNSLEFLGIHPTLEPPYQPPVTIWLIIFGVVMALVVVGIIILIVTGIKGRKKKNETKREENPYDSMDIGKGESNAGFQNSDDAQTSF

Take “S1 domain of the SARS-CoV spike protein C-terminally fused with Fc (from UniProt P59594 14-667) (Fc fusion)”: the values for the percent of ACE2-expressing (zsGreen1+) cells positive for S1-Fc in the test with mouse ACE2 (mouse) and in the test with human ACE2 (human) were 40.4% and 64%, respectively.
